Laboratory results taken from paper PMC6462090.

How the values were obtained:
[1] = molecular target: USP9X catalytic domain C1727A (human) (UniProt Q93008)
[2] = molecular target: USP9X catalytic domain H1729A (human) (UniProt Q93008)

Km for hydrolysis of Ub-AMC, fold increase against WT [1]: 5 fold
Km for hydrolysis of Ub-AMC, fold increase against WT [2]: 7 fold
Substance: Ub-AMC (from UniProt P0CG48 1-76)
